# Measured values as given in article PMC5138414, “Structural Basis for Redox Regulation of Cytoplasmic and Chloroplastic Triosephosphate Isomerases from Arabidopsis thaliana” (Frontiers in Plant Science, 2016).
# Columns and labels:
# Assay in all cases: SEC; analytical size-exclusion chromatography, Superdex 75 10/300GL, calibrated with Bio-Rad gel filtration standard, 0.5 mL/min, 100 mM TEA pH 7.4, 10 mM EDTA, 1 mM DTT; dimer of identical subunits
# [1] = target: chloroplast triosephosphate isomerase from Arabidopsis thaliana, without the predicted chloroplast targeting sequence (Arabidopsis thaliana)
# [2] = target: cytoplasmic triosephosphate isomerase from Arabidopsis thaliana (Arabidopsis thaliana) (UniProt P48491)
# [3] = target: pdTPI-C15S (Arabidopsis thaliana)
# [4] = target: pdTPI-C15S/C89S (Arabidopsis thaliana)
# [5] = target: pdTPI-C89S (Arabidopsis thaliana)
substance,measurement,setting,value
"chloroplast triosephosphate isomerase from Arabidopsis thaliana, without the predicted chloroplast targeting sequence (enzyme)",stoichiometry N,[1],2
cytoplasmic triosephosphate isomerase from Arabidopsis thaliana (from UniProt P48491 1-254) (enzyme),stoichiometry N,[2],2
pdTPI-C15S (enzyme),stoichiometry N,[3],2
pdTPI-C15S/C89S (enzyme),stoichiometry N,[4],2
pdTPI-C89S (enzyme),stoichiometry N,[5],2
